Data: the RNAGym collection of RNA variant scans (doi:10.7554/elife.80360)

B1: HDV Ribozyme (parent)
chain: GGCCGGCAUGGUCCCAGCCUCCUCGCUGGCGCCGGCUGGGCAACAUUCCGAGGGGACCGUCCCCUCGGUAAUGGCGAAUGGGACCCA

Variants of: B1
Assay: self-cleavage, relative activity (ratio to wild type); higher = more cleavage; co-transcriptional

Variant | self-cleavage
GGCCGGCAUGGUCCCAGCCUCCUCGCUGGCGCCGGCUGGGCAACAUUCCGAGGGGACCGCCCCCUCGGUAAUGGCGAAUAGGACCCA [U60C G80A] | 0.386
GGCCGGCAUGGUCCCAGCCUCCUCGCUGGCGCCGGCUGGGCAACAUUCCGAGGGGACCGGCCCCUCGGUAAUGGCGAAUGGGGCCCA [U60G A83G] | 0.712
GGCCGGCAUGGUCCCAGCCUCCUCGCUGGCGCCGGCUGGGCAACAUUCCGAGGGGACCGGCCCCUCGGUAAUGGCGAAUGGGUCCCA [U60G A83U] | 0.415
GGCCGGCAUGGUCCCAGCCUCCUCGCUGGCGCCGGCUGGGCAACAUUCCGAGGGGACCGCCCCCUCGGUAAAGGCGAAUGGGACCCA [U60C U72A] | 0.755
GGCCGGCAUGGUCCCAGCCUCCUCGCUGGCGCCGGCUGGGCAACAUUCCGAGGGGACCGCCCCCUCGGUAAGGGCGAAUGGGACCCA [U60C U72G] | 0.767
GGCCGGCAUGGUCCCAGCCUCCUCGCUGGCGCCGGCUGGGCAACAUUCCGAGGGGACCGGCCCCUCGGUAAUGGCGAAUGGGACGCA [U60G C85G] | 1.09
GGCCGGCAUGGUCCCAGCCUCCUCGCUGGCGCCGGCUGGGCAACAUUCCGAGGGGACCGGCCCCUCGGUAAUGGCGAAUGGGACACA [U60G C85A] | 0.767
GGCCGGCAUGGUCCCAGCCUCCUCGCUGGCGCCGGCUGGGCAACAUUCCGAGGGGACCGGCCCCUCGGUAAUGGCGAAUGGGACUCA [U60G C85U] | 1.15
GGCCGGCAUGGUCCCAGCCUCCUCGCUGGCGCCGGCUGGGCAACAUUCCGAGGGGACCGCCCCCUCGGUAAUGGCGAACGGGACCCA [U60C U79C] | 0.326
GGCCGGCAUGGUCCCAGCCUCCUCGCUGGCGCCGGCUGGGCAACAUUCCGAGGGGACCGGCCCAUCGGUAAUGGCGAAUGGGACCCA [U60G C64A] | 1.07
GGCCGGCAUGGUCCCAGCCUCCUCGCUGGCGCCGGCUGGGCAACAUUCCGAGGGGACCGUACCCUCGGUAAUGGCGACUGGGACCCA [C61A A78C] | 0.145
GGCCGGCAUGGUCCCAGCCUCCUCGCUGGCGCCGGCUGGGCAACAUUCCGAGGGGACCGGCCCCUCGGUAAUGGCGAAUAGGACCCA [U60G G80A] | 0.286
GGCCGGCAUGGUCCCAGCCUCCUCGCUGGCGCCGGCUGGGCAACAUUCCGAGGGGACCGGCCCCUCGGUAAUGGCGAAUCGGACCCA [U60G G80C] | 0.141
GGCCGGCAUGGUCCCAGCCUCCUCGCUGGCGCCGGCUGGGCAACAUUCCGAGGGGACCGGCCCCUCGGUAAGGGCGAAUGGGACCCA [U60G U72G] | 0.646
GGCCGGCAUGGUCCCAGCCUCCUCGCUGGCGCCGGCUGGGCAACAUUCCGAGGGGACCGGCCCCUCGGUAAUGGCGAAGGGGACCCA [U60G U79G] | 0.831
GGCCGGCAUGGUCCCAGCCUCCUCGCUGGCGCCGGCUGGGCAACAUUCCGAGGGGACCGUACCCUCGGUAAUGGCGAAUGGGUCCCA [C61A A83U] | 0.47
GGCCGGCAUGGUCCCAGCCUCCUCGCUGGCGCCGGCUGGGCAACAUUCCGAGGGGACCGGCCUCUCGGUAAUGGCGAAUGGGACCCA [U60G C63U] | 0.982
GGCCGGCAUGGUCCCAGCCUCCUCGCUGGCGCCGGCUGGGCAACAUUCCGAGGGGACCGGCCGCUCGGUAAUGGCGAAUGGGACCCA [U60G C63G] | 0.293
GGCCGGCAUGGUCCCAGCCUCCUCGCUGGCGCCGGCUGGGCAACAUUCCGAGGGGACCGGCCCCUCGGUACUGGCGAAUGGGACCCA [U60G A71C] | 1.21
GGCCGGCAUGGUCCCAGCCUCCUCGCUGGCGCCGGCUGGGCAACAUUCCGAGGGGACCGGCCCCUCGGUAUUGGCGAAUGGGACCCA [U60G A71U] | 0.918
GGCCGGCAUGGUCCCAGCCUCCUCGCUGGCGCCGGCUGGGCAACAUUCCGAGGGGACCGGCCCCUCGGUAAUGGCAAAUGGGACCCA [U60G G76A] | 1.08
GGCCGGCAUGGUCCCAGCCUCCUCGCUGGCGCCGGCUGGGCAACAUUCCGAGGGGACCGGCCCCGCGGUAAUGGCGAAUGGGACCCA [U60G U65G] | 0.883

Variant | self-cleavage
GGCCGGCAUGGUCCCAGCCUCCUCGCUGGCGCCGGCUGGGCAACAUUCCGAGGGGACCGGCCCCUCGGAAAUGGCGAAUGGGACCCA [U60G U69A] | 0.965
GGCCGGCAUGGUCCCAGCCUCCUCGCUGGCGCCGGCUGGGCAACAUUCCGAGGGGACCGCCCCCCCGGUAAUGGCGAAUGGGACCCA [U60C U65C] | 1.01
GGCCGGCAUGGUCCCAGCCUCCUCGCUGGCGCCGGCUGGGCAACAUUCCGAGGGGACCGCCCCCGCGGUAAUGGCGAAUGGGACCCA [U60C U65G] | 0.944
GGCCGGCAUGGUCCCAGCCUCCUCGCUGGCGCCGGCUGGGCAACAUUCCGAGGGGACCGCCCCCUCGGUAAUGUCGAAUGGGACCCA [U60C G74U] | 0.348
GGCCGGCAUGGUCCCAGCCUCCUCGCUGGCGCCGGCUGGGCAACAUUCCGAGGGGACCGGCCCCUCGGUCAUGGCGAAUGGGACCCA [U60G A70C] | 0.95
GGCCGGCAUGGUCCCAGCCUCCUCGCUGGCGCCGGCUGGGCAACAUUCCGAGGGGACCGGCCCCUCGGUGAUGGCGAAUGGGACCCA [U60G A70G] | 0.911
GGCCGGCAUGGUCCCAGCCUCCUCGCUGGCGCCGGCUGGGCAACAUUCCGAGGGGACCGUACCCUCGGUAAUGGCGAAUGGGACCCU [C61A A87U] | 0.978
GGCCGGCAUGGUCCCAGCCUCCUCGCUGGCGCCGGCUGGGCAACAUUCCGAGGGGACCGUACCCUCGGUAAUGGCGAAUGGGACCCC [C61A A87C] | 1.07
GGCCGGCAUGGUCCCAGCCUCCUCGCUGGCGCCGGCUGGGCAACAUUCCGAGGGGACCGUACCCUCGGUAAUGGCGAAUGGGACCCG [C61A A87G] | 1
GGCCGGCAUGGUCCCAGCCUCCUCGCUGGCGCCGGCUGGGCAACAUUCCGAGGGGACCGGCCCCUCGGUAAUGGCGAAUGGUACCCA [U60G G82U] | 0.309
GGCCGGCAUGGUCCCAGCCUCCUCGCUGGCGCCGGCUGGGCAACAUUCCGAGGGGACCGGCCCCUCGGUAAUGGCGAAUGGCACCCA [U60G G82C] | 0.133
GGCCGGCAUGGUCCCAGCCUCCUCGCUGGCGCCGGCUGGGCAACAUUCCGAGGGGACCGCCCCCUCGGUAAUGGCGAAUGGCACCCA [U60C G82C] | 0.269
GGCCGGCAUGGUCCCAGCCUCCUCGCUGGCGCCGGCUGGGCAACAUUCCGAGGGGACCGCCCCCUCGGUAAUGGCGAAUGGAACCCA [U60C G82A] | 0.427
GGCCGGCAUGGUCCCAGCCUCCUCGCUGGCGCCGGCUGGGCAACAUUCCGAGGGGACCGGCCCCUCGGUAAUGGAGAAUGGGACCCA [U60G C75A] | 0.229
GGCCGGCAUGGUCCCAGCCUCCUCGCUGGCGCCGGCUGGGCAACAUUCCGAGGGGACCGGCCCCUCGGUAAUGGGGAAUGGGACCCA [U60G C75G] | 0.119
GGCCGGCAUGGUCCCAGCCUCCUCGCUGGCGCCGGCUGGGCAACAUUCCGAGGGGACCGGCCCCUCGGUAAUGGUGAAUGGGACCCA [U60G C75U] | 0.231
GGCCGGCAUGGUCCCAGCCUCCUCGCUGGCGCCGGCUGGGCAACAUUCCGAGGGGACCGUACACUCGGUAAUGGCGAAUGGGACCCA [C61A C63A] | 0.689
GGCCGGCAUGGUCCCAGCCUCCUCGCUGGCGCCGGCUGGGCAACAUUCCGAGGGGACCGUACCCUCGGUAAUGGCGAAUGGGACCCA [C61A] | 1.02
GGCCGGCAUGGUCCCAGCCUCCUCGCUGGCGCCGGCUGGGCAACAUUCCGAGGGGACCGCCCCCUCGGUAAUGGCAAAUGGGACCCA [U60C G76A] | 1.05
GGCCGGCAUGGUCCCAGCCUCCUCGCUGGCGCCGGCUGGGCAACAUUCCGAGGGGACCGCCCCCUCGGUAAUGGCCAAUGGGACCCA [U60C G76C] | 1.16
GGCCGGCAUGGUCCCAGCCUCCUCGCUGGCGCCGGCUGGGCAACAUUCCGAGGGGACCGCCCCCUCGGUAAUGGCUAAUGGGACCCA [U60C G76U] | 1.05
GGCCGGCAUGGUCCCAGCCUCCUCGCUGGCGCCGGCUGGGCAACAUUCCGAGGGGACCGGCCCCUCGGUAAUGGCGAAUGGGACCUA [U60G C86U] | 0.959

Variant | self-cleavage
GGCCGGCAUGGUCCCAGCCUCCUCGCUGGCGCCGGCUGGGCAACAUUCCGAGGGGACCGGCCCCUCGGUAAUGGCGAAUGGGACCAA [U60G C86A] | 1.01
GGCCGGCAUGGUCCCAGCCUCCUCGCUGGCGCCGGCUGGGCAACAUUCCGAGGGGACCGGCCCCUCGAUAAUGGCGAAUGGGACCCA [U60G G68A] | 1.02
GGCCGGCAUGGUCCCAGCCUCCUCGCUGGCGCCGGCUGGGCAACAUUCCGAGGGGACCGGCCCCUCGCUAAUGGCGAAUGGGACCCA [U60G G68C] | 0.965
GGCCGGCAUGGUCCCAGCCUCCUCGCUGGCGCCGGCUGGGCAACAUUCCGAGGGGACCGGCCCCUUGGUAAUGGCGAAUGGGACCCA [U60G C66U] | 1.08
GGCCGGCAUGGUCCCAGCCUCCUCGCUGGCGCCGGCUGGGCAACAUUCCGAGGGGACCGGCCCCUCGGUAAUGGCGAAUGGGACCCG [U60G A87G] | 0.921
GGCCGGCAUGGUCCCAGCCUCCUCGCUGGCGCCGGCUGGGCAACAUUCCGAGGGGACCGGCCCCUCGGUAAUGGCGAAUGGGACCCC [U60G A87C] | 0.831
GGCCGGCAUGGUCCCAGCCUCCUCGCUGGCGCCGGCUGGGCAACAUUCCGAGGGGACCGGCCCCUCGGUAAUGUCGAAUGGGACCCA [U60G G74U] | 0.665
GGCCGGCAUGGUCCCAGCCUCCUCGCUGGCGCCGGCUGGGCAACAUUCCGAGGGGACCGGCGCCUCGGUAAUGGCGAAUGGGACCCA [U60G C62G] | 0.703
GGCCGGCAUGGUCCCAGCCUCCUCGCUGGCGCCGGCUGGGCAACAUUCCGAGGGGACCGGCACCUCGGUAAUGGCGAAUGGGACCCA [U60G C62A] | 0.886
GGCCGGCAUGGUCCCAGCCUCCUCGCUGGCGCCGGCUGGGCAACAUUCCGAGGGGACCGUACCCUCGGUACUGGCGAAUGGGACCCA [C61A A71C] | 1.12
GGCCGGCAUGGUCCCAGCCUCCUCGCUGGCGCCGGCUGGGCAACAUUCCGAGGGGACCGGCCCCUCGGUAAUGGCGUAUGGGACCCA [U60G A77U] | 0.237
GGCCGGCAUGGUCCCAGCCUCCUCGCUGGCGCCGGCUGGGCAACAUUCCGAGGGGACCGGCCCCUCGGUAAUGGCGCAUGGGACCCA [U60G A77C] | 0.227
GGCCGGCAUGGUCCCAGCCUCCUCGCUGGCGCCGGCUGGGCAACAUUCCGAGGGGACCGGCCCCUCGGUAAUGGCGAAUGGGAGCCA [U60G C84G] | 0.902
GGCCGGCAUGGUCCCAGCCUCCUCGCUGGCGCCGGCUGGGCAACAUUCCGAGGGGACCGGCCCCUCGGUAAUGGCGAAUGGGAUCCA [U60G C84U] | 0.798
GGCCGGCAUGGUCCCAGCCUCCUCGCUGGCGCCGGCUGGGCAACAUUCCGAGGGGACCGGCCCCUCGGUAAUGGCGAAUGGGAACCA [U60G C84A] | 0.752
GGCCGGCAUGGUCCCAGCCUCCUCGCUGGCGCCGGCUGGGCAACAUUCCGAGGGGACCGCCCCCUCGGGAAUGGCGAAUGGGACCCA [U60C U69G] | 0.95
GGCCGGCAUGGUCCCAGCCUCCUCGCUGGCGCCGGCUGGGCAACAUUCCGAGGGGACCGCCCCCUCGGUAAUGGCGAAUGCGACCCA [U60C G81C] | 0.291
GGCCGGCAUGGUCCCAGCCUCCUCGCUGGCGCCGGCUGGGCAACAUUCCGAGGGGACCGGCCCCUCGGUAAUGGCGAAUGAGACCCA [U60G G81A] | 0.269
GGCCGGCAUGGUCCCAGCCUCCUCGCUGGCGCCGGCUGGGCAACAUUCCGAGGGGACCGGCCCCUCGGUAAUGGCGAAUGCGACCCA [U60G G81C] | 0.268
GGCCGGCAUGGUCCCAGCCUCCUCGCUGGCGCCGGCUGGGCAACAUUCCGAGGGGACCGUAACCUCGGUAAUGGCGAAUGGGACCCA [C61A C62A] | 0.904
